US12187807B2, “Antibody molecules to C5AR1 and uses thereof” (Visterra, Inc., priority 2020, dated 2025)

T1: C5aR1 (Homo sapiens, UniProt P21730)
T1 sequence (P21730 1-350): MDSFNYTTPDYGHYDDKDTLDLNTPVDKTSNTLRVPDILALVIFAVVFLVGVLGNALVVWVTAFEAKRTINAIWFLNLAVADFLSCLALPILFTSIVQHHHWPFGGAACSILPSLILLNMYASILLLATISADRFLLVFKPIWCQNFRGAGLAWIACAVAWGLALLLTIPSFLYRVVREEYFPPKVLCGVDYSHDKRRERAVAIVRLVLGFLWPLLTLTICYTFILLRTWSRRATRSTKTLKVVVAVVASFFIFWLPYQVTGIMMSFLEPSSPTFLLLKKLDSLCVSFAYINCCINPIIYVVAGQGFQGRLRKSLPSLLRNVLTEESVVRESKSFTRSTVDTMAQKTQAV

T2: biotinylated peptide representing the N-terminus of C5aR1 without tyrosine sulfation (Homo sapiens, UniProt P21730)
T2 construct: the N-terminus without tyrosine sulfation
T2 sequence (P21730 1-37 limits assumed): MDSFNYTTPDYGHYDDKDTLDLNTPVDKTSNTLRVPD


Tests used:
[1] = test system: C5aR1 mutants (N-terminus, ECL1, ECL2, ECL3); experiment: Alanine scanning / mutagenesis epitope mapping of C5aR1; format: binding, human
Description: FIG. 5A is a diagram showing the results of alanine scanning mutations of site I interaction with mab 583. The N-terminal amino acid sequence of C5aR1 is listed across the top of the figure. Glycosylation sites are indicated by rectangle boxes. The only natural glycosylation site is at position N5. The other sites were introduced by mutagenesis. Mutations that abolished clone 583 binding are circled. The sulfated tyrosines at positions 11 and 14 are marked with a star sign. FIG. 5B is a diagram showing results of alanine scanning mutations of site I interaction with mab 66. Mutations that abolished clone 66 binding are circled. The sulfated tyrosines at positions 11 and 14 are marked with a star sign.
Ala substitutions of T8 & D10 moderately reduces its affinity while Y11 & D15 abolishes mAb binding. […] N-glycosylation of at N17 or D17P also abolishes mAb binding. N5 glycan is tolerated but a tandem glycosylation (N5 & N17) is not tolerated. mAb core epitopes are T8-G12 but nature of AA present in D15-D18 influence its binding. […] The core epitope appears to be located near T8-G12, with additional contributions from D15-D18.
Clone 66 was previously characterized as a site I binder and its binding is dependent on tyrosine sulfation at positions 11Y and/or 14Y. […] It should be noted that the only the only non-human species to retain clone 66 binding was baboon, which is the only NHP that retains the DYGHY motif.
However, it was unknown if additional contacts were made with ECL1 or ECL3. […] The data is highlighted in FIG. 5C-5E.
The core epitope of clone 11 is from E180-P183; the core epitope of clone 329 is from E180-P184; and the core epitope of clone 336 is from R178-P183. […] The data for clones 11, 329, and 336 is highlighted in FIG. 5F.

C5aR1 = molecular target: T1, C5aR1; experiment: GeneBLAzer reporter assay (C5aR1 mediated Gα signaling); format: cell-based; set-up: host or cells: vendor's C5aR1 GeneBLAzer reporter cell line; conditions: for antagonism of C5aR1 compared to reference antibodies or to Avacopan: 10 nM of antibody, 10 nM C5a; for inhibition of C5aR1 signaling / activity in the GeneBLAzer assay: C5a dose response with varying concentrations of antibody; for inhibition of C5aR1 mediated Gα signaling in the presence of C5-alpha: U937 cells, increasing concentrations of C5-alpha, FIGS. 20A-20G
Experimental: In addition, a GeneBLAzer reporter assay was used, which mimics the calcium flux assay. The GeneBLAzer assay kit and C5aR1 cell line were commercially available from Thermo Fisher (Catalog #K1544). The assay was performed as recommend by the manufacturer. Briefly, antibodies or antagonists were incubated for 30 minutes at 37° C. C5a was then added to the cells and incubated at 37° C. for an additional 4-5 hours. Beta-lactamase substrate was then added and incubated for 2 hours at room temperature. Fluorescent measurements for each well with an excitation/emission of 409/460 (blue) and 409/530 (green) were measured. An increase in the blue to green ratio was proportional to C5aR1 activation and was used to calculate the percent of activation for the cells in each well.
Exemplary anti-C5aR1 antibodies generated as described in Example 1 were screened for antagonist activity against human C5aR1 using the GeneBLAzer assay, as described in Example 1. Briefly, cells were pre-incubated with 10 nM of antibody followed by addition of 10 nM C5a. The engineered induction of beta-lactamase expression by C5a-C5aR1 signaling was measured using the BLA substrate and calculating the ratio of blue and green fluorescence.

[2] = molecular target: T3, biotinylated peptide representing ECL2 of C5aR1 (Homo sapiens, UniProt P21730); experiment: Epitope mapping by biolayer interferometry, ECL2 peptide; format: binding; set-up: key: “+” indicates binding to the listed peptide; “−” indicates lack of binding to the listed peptide
T3 construct: cyclic ECL2 peptide spanning from residues R175 to C188
Experimental: (§1) The epitope mapping was undertaken, using biolayer interferometry, on a series of exemplary anti-C5aR1 antibodies generated as described in Example 1. Briefly, for each antibody, biotinylated peptides representing ECL2, the N-terminus with tyrosine sulfation, and the N-terminus without tyrosine sulfation, were immobilized in a streptavidin biosensor. Subsequently, the biosensor was exposed to 10 μg/mL of antibody to detect antibody binding to the immobilized peptide. The results of the epitope mapping study are shown in Table 4 (“+” indicates binding to the listed peptide; “−” indicates lack of binding to the listed peptide).

[3] = molecular target: T2, biotinylated peptide representing the N-terminus of C5aR1 without tyrosine sulfation; experiment: Epitope mapping by biolayer interferometry, N-terminus without tyrosine sulfation; format: binding; set-up: key: “+” indicates binding to the listed peptide; “−” indicates lack of binding to the listed peptide; conditions: 10 μg/mL of antibody, biotinylated peptide on streptavidin biosensor
Experimental: as §1

[4] = biolayer interferometry, 10 μg/mL of antibody, biotinylated peptide on streptavidin biosensor

antagonism of C5aR1 compared to reference antibodies or to Avacopan (C5aR1)	inhibition of C5aR1 signaling / activity in the GeneBLAzer assay (C5aR1)	Binding to Cyclic ECL2 peptide [2, 4]	Binding to Cyclic ECL2 peptide ([2]; peptide spanning residues R175 to C188)	Binding to Non-sulfated N-terminal peptide [3]	Molecule	binding to C5aR1 mutant ([1]; Ala mutation of E180 & Y181)	binding to C5aR1 mutant ([1]; mutation of Y182, P183 & P184)	inhibition of C5aR1 mediated Gα signaling in the presence of C5-alpha (C5aR1)	cross-reactivity to cyno and rhesus monkey [1]	requirement of tyrosine sulfation (Y11, Y14) for binding [1]	binding to C5aR1 mutant ([1]; G12A/T)	binding to C5aR1 mutant ([1]; G12E/D)	binding to C5aR1 mutant ([1]; mutations at D15)	binding to C5aR1 mutant ([1]; mutations at positions 13 and 14)	non-human species that retains binding [1]
improved	inhibited in a dose-dependent fashion	+	bound to a cyclic ECL2 peptide	−	clone 329: anti-C5aR1 Site II antibody; VH SEQ ID NO: 492, VL SEQ ID NO: 552 (antibody, V domains shown) VH: QVQLQQSGAELTKPGASVKLSCKASGYTFTNYWMHWVKQRPGQGLEWIGYLNPSSGYTKYNQKFKDKATLTADKSSSTAYMQLNSLTYEDSAVYYCTRSGGDNYGNPYYFDRWGQGTTVTVSS VL: DVVMTQTPLSLTVSLGDQASISCRSSQSLVHSNGNTYLHWYLQKPGQSPKFLIYKVSNRFSGVPDRFSGSGSGTDFRLKISRVEAEDLGVYFCSQSTLVPLTFGAGTKLEIK	abolished mAb binding	reduced binding	inhibition of C5aR1 mediated Gα signaling							
improved	highly potent	−		+	clone 583: anti-C5aR1 Site I antibody; VH SEQ ID NO: 536, VL SEQ ID NO: 595 (antibody, V domains shown) VH: EVQLVESGGGLVKPGGSLKLSCAASGFTFNAYAMSWVRQTPEKRLEWVASISTGGNTYCPDSVKDRFTVSRDNVRNILYLQMSSLRSEDTAMYYCTRGYQRFSGFAYWGQGTLVTVS VL: DVVMTQTPLSPPVSLGYQASISCRSSQSLVHSNGNTYLNWYLQKPGQSPKLLIYKVSNRLSGVPDRFSGSGSGTDFTLKISRVETEDLGVYFCSQSTHVPYTFGGGTKLEIK			inhibition of C5aR1 mediated Gα signaling	lack of cross-reactivity	tyrosine sulfation is not required	tolerated	abolish binding	abolish binding	tolerated	
	highly potent	−		−	clone 66: anti-C5aR1 Site I antibody; VH SEQ ID NO: 483, VL SEQ ID NO: 543 (antibody, V domains shown) VH: QVQLQQSDAELVKPGASVKISCKASGYTFIDHAIHWVKQRPEQGLEWIGYISPGNGEIKYNEKFKAKATLTADKSSSAAYMQLNSLTSADSAVYFCKRALFYYTGKYQPMDYWGQGTTVTDSS VL: DIVMTQSQKFMSTTAGDRVSITCKASQNVGSAVVWYQQKPGRSPKLLIYSSSIRYTGVPDRFTGSGSGTDFTLTINSVQSEDLADYFCQQYNSFPLTFGAGTKLEIK					sulfation is only required at position 14					baboon
